Experimental data as given in IntAct's records for PubMed 22495310.

B1: CREB-regulated transcription coactivator 2 (Mus musculus), Q3U182 (parent)
chain: MATSGANGPGSATASASNPRKFSEKIALQKQRQAEETAAFEEVMMDIGSTRLQAQKLRLAYTRSSHYGGSLPNVNQIGCGLAEFQSPLHSPLDSSRSTRHHGLVERVQRDARRMVSPLRRYPRHIDSSPYSPAYLSPPPESGWRRMMPWGNLPAEKGQLFRLPSALNRTSSDSALHTSVMNPNPQDTYPGPTPPSVLPSRRGGGFLDGEMDAKVPAIEENVVDDKHLLKPWDAKKLSSSSSRPRSCEVPGINIFPSPDQPANVPVLPPAMNTGGSLPDLTNLHFPPPLPTPLDPEETVYPSLSGGNSTTNLTHTMTHLGISGGLGLGPSYDVPGLHSPLSHPSLQSSLSNPNLQASLSSPQPQLQGSHSHPSLPASSLAHHALPTTSLGHPSLSAPALSSSSSSSSTSSPVLSAPPYPASTPGASPRHRRVPLSPLSLPAGPADARRSQQQLPKQFSPTMSPTLSSITQGVPLDTSKLPTDQRLPPYPYSPPSLVIPTHPPTPKSLQQLPSQACLVQPSGGQPPGRQPHYGALYPPGSSGHGQQPYHRPINDFSLGNLEQFNMESPSTSLVLDPPAFSEGPGFLGSEGSMSGPQDPHVLNHQNLTHCSRHGSGPNIILTGDSSPGFSKEIAAALAGVPGFEVSASGLELGLGLEDELRMEPLGLEGLTMLSDPCALLPDPAVEDSFRSDRLQ

Variants of: B1
Conditions: with pp2ba_mouse Ppp3ca

Row | effect of a mutation on the interaction | Variant
1 | decreasing interaction strength | P614G;I616A;L618A;T619A
